From IntAct's records for PubMed 31515488 come the findings set out here.

First the molecules themselves.
B1: Tuftelin-interacting protein 11 (Homo sapiens), Q9UBB9 (parent)
chain: MSLSHLYRDGEGRIDDDDDERENFEITDWDLQNEFNPNRQRHWQTKEEATYGVWAERDSDDERPSFGGKRARDYSAPVNFISAGLKKGAAEEAELEDSDDEEKPVKQDDFPKDFGPRKLKTGGNFKPSQKGFAGGTKSFMDFGSWERHTKGIGQKLLQKMGYVPGRGLGKNAQGIINPIEAKQRKGKGAVGAYGSERTTQSMQDFPVVDSEEEAEEEFQKELSQWRKDPSGSKKKPKYSYKTVEELKAKGRISKKLTAPQKELSQVKVIDMTGREQKVYYSYSQISHKHNVPDDGLPLQSQQLPQSGKEAKAPGFALPELEHNLQLLIDLTEQEIIQNDRQLQYERDMVVNLFHELEKMTEVLDHEERVISNLSKVLEMVEECERRMQPDCSNPLTLDECARIFETLQDKYYEEYRMSDRVDLAVAIVYPLMKEYFKEWDPLKDCTYGTEIISKWKSLLENDQLLSHGGQDLSADAFHRLIWEVWMPFVRNIVTQWQPRNCDPMVDFLDSWVHIIPVWILDNILDQLIFPKLQKEVENWNPLTDTVPIHSWIHPWLPLMQARLEPLYSPIRSKLSSALQKWHPSDSSAKLILQPWKDVFTPGSWEAFMVKNIVPKLGMCLGELVINPHQQHMDAFYWVIDWEGMISVSSLVGLLEKHFFPKWLQVLCSWLSNSPNYEEITKWYLGWKSMFSDQVLAHPSVKDKFNEALDIMNRAVSSNVGAYMQPGARENIAYLTHTERRKDFQYEAMQERREAENMAQRGIGVAASSVPMNFKDLIETKAEEHNIVFMPVIGKRHEGKQLYTFGRIVIYIDRGVVFVQGEKTWVPTSLQSLIDMAK

In the first test the parent is B1. The note with it: with lca5l_human LCA5L.
For M140V, the “effect of a mutation on the interaction” value is “with no effect”.

The next test covers variants of B1. To be noted: with ccnd3_human CCND3, P30281.
Chain of ccnd3_human CCND3, P30281 (P30281 whole entry): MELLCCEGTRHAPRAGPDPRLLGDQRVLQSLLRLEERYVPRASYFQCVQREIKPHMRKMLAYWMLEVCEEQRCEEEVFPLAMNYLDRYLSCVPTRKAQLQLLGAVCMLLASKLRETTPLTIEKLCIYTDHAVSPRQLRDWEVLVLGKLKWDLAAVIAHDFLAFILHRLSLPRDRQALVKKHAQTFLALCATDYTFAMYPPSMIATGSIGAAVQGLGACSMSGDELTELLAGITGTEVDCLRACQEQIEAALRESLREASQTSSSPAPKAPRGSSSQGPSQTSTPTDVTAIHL
With M140V, the “effect of a mutation on the interaction” value is “with no effect”.

The variants in the next test derive from B1. The note with it: with cenpu_human CENPU.
M140V: the “effect of a mutation on the interaction” value is listed as “with no effect”.

In the next test the parent is B1. To be noted: with zmat2_human ZMAT2, Q96NC0.
Chain of zmat2_human ZMAT2, Q96NC0 (Q96NC0 whole entry): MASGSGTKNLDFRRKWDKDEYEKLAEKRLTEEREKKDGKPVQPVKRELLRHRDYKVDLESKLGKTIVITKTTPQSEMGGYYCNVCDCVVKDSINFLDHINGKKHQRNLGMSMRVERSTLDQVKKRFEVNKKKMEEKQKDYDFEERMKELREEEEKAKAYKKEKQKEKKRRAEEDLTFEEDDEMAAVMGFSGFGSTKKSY
Regarding S688L, the “effect of a mutation on the interaction” value was “with no effect”.

In a further test the parent is B1. To be noted: with cox5b_human COX5B.
For S688L, the “effect of a mutation on the interaction” value is recorded as “with no effect”.

The next test covers variants of B1. To be noted: with txlna_human TXLNA.
Turning to S688L, the “effect of a mutation on the interaction” value is on record as “with no effect”.

The variants in the next test derive from B1. The note with it: with hook1_human HOOK1, Q9UJC3.
On to S688L, for which the “effect of a mutation on the interaction” value is reported as “with no effect”.

In a further test the parent is B1. The note with it: with tnnt1_human TNNT1, P13805.
Chain of tnnt1_human TNNT1, P13805 (P13805 whole entry): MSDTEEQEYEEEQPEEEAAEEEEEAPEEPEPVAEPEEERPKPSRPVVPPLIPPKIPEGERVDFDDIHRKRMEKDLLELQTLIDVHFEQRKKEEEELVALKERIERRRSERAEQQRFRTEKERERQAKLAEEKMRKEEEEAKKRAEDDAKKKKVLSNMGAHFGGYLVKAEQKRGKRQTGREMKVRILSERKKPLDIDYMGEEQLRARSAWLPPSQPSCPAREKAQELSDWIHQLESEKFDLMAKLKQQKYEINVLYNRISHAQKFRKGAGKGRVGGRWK
In the case of S688L, the “effect of a mutation on the interaction” value is reported as “with no effect”.

The variants in a further test derive from B1. To be noted: with coq8a_human COQ8A.
As for S688L, the “effect of a mutation on the interaction” value is “with no effect”.

In a further test the parent is B1. The note with it: with smce1_human SMARCE1, Q969G3.
Chain of smce1_human SMARCE1, Q969G3 (Q969G3 whole entry): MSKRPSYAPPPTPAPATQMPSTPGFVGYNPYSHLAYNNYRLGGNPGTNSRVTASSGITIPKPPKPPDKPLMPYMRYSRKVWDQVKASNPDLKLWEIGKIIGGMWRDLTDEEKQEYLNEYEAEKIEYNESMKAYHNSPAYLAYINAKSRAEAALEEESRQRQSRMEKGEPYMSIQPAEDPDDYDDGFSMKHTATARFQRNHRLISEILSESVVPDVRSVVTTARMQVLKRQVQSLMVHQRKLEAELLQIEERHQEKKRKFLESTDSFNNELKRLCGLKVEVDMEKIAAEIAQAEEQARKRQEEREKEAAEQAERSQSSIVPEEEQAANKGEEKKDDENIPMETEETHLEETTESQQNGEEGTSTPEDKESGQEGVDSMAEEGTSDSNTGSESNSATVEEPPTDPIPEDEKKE
With S688L, the “effect of a mutation on the interaction” value is “with no effect”.

A further test covers variants of B1. The note with it: with bmf_human BMF.
As for S688L, the “effect of a mutation on the interaction” value is listed as “with no effect”.

Variants of B1 are the subject of another test. To be noted: with fa13c_human FAM13C.
S688L: the “effect of a mutation on the interaction” value is given as “with no effect”.

The variants in a further test derive from B1. To be noted: with prp31_human PRPF31, Q8WWY3.
Chain of prp31_human PRPF31, Q8WWY3 (Q8WWY3 whole entry): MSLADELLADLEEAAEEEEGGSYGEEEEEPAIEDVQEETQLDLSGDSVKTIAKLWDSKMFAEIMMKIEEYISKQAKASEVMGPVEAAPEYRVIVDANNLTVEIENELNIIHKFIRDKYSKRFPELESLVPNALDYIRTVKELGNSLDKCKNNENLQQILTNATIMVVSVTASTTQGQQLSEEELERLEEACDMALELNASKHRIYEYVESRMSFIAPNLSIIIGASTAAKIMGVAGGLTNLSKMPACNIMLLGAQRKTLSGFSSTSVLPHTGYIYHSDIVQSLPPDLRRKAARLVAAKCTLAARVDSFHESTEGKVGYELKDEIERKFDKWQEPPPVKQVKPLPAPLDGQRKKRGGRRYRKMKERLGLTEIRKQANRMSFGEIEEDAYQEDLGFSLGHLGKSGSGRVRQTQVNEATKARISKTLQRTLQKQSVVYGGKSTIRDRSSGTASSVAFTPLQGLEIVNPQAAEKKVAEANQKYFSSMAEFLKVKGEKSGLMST
S688L: the “effect of a mutation on the interaction” value is given as “with no effect”.

In a further test the parent is B1. The note with it: with snw1_human SNW1, Q13573.
Turning to S688L, the “effect of a mutation on the interaction” value is listed as “with no effect”.

The variants in the next test derive from B1. The note with it: with sfr1_human SFR1, Q86XK3.
Chain of sfr1_human SFR1, Q86XK3 (Q86XK3 whole entry): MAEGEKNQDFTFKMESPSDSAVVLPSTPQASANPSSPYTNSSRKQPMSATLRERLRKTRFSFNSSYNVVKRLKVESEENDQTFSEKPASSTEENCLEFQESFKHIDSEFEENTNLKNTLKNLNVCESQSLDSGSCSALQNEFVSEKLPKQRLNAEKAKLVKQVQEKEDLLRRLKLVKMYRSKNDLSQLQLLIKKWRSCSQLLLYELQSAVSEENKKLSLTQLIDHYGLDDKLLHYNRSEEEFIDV
As for S688L, the “effect of a mutation on the interaction” value was “with no effect”.

The variants in a further test derive from B1. To be noted: with zfy26_human ZFYVE26, Q68DK2.
Chain of zfy26_human ZFYVE26, Q68DK2 (Q68DK2 whole entry): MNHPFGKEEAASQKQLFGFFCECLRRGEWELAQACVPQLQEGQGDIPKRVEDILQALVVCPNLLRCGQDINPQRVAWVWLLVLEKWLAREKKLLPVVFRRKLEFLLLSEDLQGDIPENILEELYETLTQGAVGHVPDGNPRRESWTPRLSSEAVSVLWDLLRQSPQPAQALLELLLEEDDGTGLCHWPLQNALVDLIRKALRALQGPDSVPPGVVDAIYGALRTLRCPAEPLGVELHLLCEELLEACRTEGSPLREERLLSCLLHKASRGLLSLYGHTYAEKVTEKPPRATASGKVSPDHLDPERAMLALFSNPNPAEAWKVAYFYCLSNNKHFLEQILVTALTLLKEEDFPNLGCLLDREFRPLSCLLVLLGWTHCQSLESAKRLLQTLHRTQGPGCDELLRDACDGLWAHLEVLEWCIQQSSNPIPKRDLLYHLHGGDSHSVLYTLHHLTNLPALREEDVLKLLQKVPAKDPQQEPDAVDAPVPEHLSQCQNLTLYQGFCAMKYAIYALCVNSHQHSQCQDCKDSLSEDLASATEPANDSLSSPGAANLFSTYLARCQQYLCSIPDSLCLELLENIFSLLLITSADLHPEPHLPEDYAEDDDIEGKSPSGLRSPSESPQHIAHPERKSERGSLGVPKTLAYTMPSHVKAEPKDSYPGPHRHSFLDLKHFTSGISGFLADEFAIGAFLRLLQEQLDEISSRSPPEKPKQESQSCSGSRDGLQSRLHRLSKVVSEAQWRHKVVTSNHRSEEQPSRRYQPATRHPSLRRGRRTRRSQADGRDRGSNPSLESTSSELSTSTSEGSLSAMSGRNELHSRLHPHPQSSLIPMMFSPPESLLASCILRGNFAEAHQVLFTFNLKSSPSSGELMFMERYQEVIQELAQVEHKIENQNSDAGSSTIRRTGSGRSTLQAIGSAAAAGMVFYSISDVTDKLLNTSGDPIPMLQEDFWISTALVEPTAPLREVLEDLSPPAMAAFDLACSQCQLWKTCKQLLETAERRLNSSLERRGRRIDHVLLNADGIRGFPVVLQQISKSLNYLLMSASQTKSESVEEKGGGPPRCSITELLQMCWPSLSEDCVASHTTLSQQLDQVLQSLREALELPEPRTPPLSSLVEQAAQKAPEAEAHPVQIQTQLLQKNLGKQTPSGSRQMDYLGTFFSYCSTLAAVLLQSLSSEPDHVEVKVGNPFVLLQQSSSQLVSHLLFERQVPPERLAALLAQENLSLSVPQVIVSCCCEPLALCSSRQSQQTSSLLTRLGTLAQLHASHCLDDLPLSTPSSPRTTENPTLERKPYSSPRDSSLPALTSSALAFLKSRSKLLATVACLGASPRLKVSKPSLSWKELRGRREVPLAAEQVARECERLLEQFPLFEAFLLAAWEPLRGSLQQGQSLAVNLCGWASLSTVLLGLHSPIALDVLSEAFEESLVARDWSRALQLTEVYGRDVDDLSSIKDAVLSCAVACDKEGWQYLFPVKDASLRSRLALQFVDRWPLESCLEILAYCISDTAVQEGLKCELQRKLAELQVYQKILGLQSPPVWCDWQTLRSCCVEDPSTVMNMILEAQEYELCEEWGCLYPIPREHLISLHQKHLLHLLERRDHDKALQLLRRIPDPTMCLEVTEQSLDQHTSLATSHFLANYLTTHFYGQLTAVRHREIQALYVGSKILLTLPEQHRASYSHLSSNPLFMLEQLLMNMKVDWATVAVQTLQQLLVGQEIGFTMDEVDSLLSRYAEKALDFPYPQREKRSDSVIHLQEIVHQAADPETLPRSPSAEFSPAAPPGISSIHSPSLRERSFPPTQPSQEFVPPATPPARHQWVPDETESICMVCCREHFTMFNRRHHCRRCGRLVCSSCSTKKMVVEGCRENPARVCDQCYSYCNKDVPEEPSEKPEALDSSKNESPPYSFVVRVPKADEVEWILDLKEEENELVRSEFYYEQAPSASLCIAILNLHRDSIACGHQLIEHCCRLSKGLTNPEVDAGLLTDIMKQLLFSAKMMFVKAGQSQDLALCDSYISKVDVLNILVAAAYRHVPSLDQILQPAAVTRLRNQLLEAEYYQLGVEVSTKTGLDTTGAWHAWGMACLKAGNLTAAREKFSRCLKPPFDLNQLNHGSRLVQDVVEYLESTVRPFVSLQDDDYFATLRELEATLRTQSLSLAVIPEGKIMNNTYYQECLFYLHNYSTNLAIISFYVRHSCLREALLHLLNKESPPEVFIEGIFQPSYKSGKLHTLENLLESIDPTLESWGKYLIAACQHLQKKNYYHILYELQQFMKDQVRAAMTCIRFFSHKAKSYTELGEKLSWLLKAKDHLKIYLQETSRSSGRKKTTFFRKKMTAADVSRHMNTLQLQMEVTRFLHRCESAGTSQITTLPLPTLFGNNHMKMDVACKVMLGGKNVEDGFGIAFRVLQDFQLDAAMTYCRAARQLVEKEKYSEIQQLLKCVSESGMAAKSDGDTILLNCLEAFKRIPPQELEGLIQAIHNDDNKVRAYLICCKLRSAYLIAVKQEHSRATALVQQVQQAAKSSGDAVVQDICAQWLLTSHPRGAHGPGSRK
Consider S688L, for which the “effect of a mutation on the interaction” value is listed as “with no effect”.

Variants of B1 are the subject of the next test. The note with it: with abi2_human ABI2, Q9NYB9.
Chain of abi2_human ABI2, Q9NYB9 (Q9NYB9 whole entry): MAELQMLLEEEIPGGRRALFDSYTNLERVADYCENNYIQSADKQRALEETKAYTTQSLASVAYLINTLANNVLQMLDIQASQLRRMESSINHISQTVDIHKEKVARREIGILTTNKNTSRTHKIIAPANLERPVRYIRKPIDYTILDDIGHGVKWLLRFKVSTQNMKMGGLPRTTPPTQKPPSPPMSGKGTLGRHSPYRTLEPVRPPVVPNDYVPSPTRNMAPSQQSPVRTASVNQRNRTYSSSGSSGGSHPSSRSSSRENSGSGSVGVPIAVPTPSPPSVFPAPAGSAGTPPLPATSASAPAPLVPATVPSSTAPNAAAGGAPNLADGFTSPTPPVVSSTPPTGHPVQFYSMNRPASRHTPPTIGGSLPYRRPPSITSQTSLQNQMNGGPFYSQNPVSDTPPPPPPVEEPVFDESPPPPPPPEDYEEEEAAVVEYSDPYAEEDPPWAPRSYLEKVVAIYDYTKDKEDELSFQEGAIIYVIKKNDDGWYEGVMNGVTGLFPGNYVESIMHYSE
Regarding S688L, the “effect of a mutation on the interaction” value is “with no effect”.

Another test covers variants of B1. To be noted: with cc121_human CCDC121, Q6ZUS5.
Regarding S688L, the “effect of a mutation on the interaction” value is reported as “with no effect”.

In a further test the parent is B1. To be noted: with KRT6A.
S688L: the “effect of a mutation on the interaction” value was “with no effect”.
